Measured values reported in article PMC3795964 (Journal of molecular biology, 2013).

B1: GST-tagged Yra1 (full length) (natural protein, S. cerevisiae, UniProt Q12159 1-226, looked up)
chain: MSANLDKSLDEIIGSNKAGSNRARVGGTRGNGPRRVGKQVGSQRRSLPNRRGPIRKNTRAPPNAVARVAKLLDTTREVKVNVEGLPRDIKQDAVREFFASQVGGVQRVLLSYNERGQSTGMANITFKNGELARRAVERFNGSPIDGGRSRLRLNLIVDPNQRPVKSLADRIKAMPQKGGNAPRPVKRGPNRKAAMAKSQNKPKREKPAKKSLEDLDKEMADYFEKK
B2: GST-Yra1 C (domain or fragment, S. cerevisiae, UniProt Q12159 124-226, looked up)
chain: ITFKNGELARRAVERFNGSPIDGGRSRLRLNLIVDPNQRPVKSLADRIKAMPQKGGNAPRPVKRGPNRKAAMAKSQNKPKREKPAKKSLEDLDKEMADYFEKK

Molecular target: 6XHIS-tagged Dbp2 (S. cerevisiae, UniProt P24783 1-546)
Assay: pull-down

Sequence of 6XHIS-tagged Dbp2 (P24783 whole entry): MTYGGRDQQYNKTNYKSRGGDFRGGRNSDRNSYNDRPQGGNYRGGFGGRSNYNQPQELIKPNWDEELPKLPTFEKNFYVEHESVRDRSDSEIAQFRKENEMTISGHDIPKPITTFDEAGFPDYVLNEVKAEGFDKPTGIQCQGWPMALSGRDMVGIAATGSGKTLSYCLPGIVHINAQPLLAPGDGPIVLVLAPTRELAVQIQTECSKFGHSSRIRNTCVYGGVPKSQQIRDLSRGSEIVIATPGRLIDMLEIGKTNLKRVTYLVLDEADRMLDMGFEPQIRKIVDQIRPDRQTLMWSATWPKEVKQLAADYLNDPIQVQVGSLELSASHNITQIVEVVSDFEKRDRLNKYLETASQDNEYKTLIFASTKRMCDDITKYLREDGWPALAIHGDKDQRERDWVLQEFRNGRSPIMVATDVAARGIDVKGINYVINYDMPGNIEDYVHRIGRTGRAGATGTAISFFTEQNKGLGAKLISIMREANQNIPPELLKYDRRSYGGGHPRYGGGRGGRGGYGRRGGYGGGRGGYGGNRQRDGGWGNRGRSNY

Binder	binding result
B1	binds
B2	binds
